Experimental data as given in patent US20170233495.

System: All antibodies according to the invention, which were tested (Example 4)

Chain of recombinant catalytic domain of human MMP3 (chain, as listed by the source): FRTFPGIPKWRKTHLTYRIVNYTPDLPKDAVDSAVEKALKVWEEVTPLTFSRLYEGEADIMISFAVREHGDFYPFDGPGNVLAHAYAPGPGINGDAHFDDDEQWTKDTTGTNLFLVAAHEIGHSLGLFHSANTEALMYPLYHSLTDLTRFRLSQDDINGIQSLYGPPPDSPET
Chain of recombinant catalytic domain of human MMP2 (chain, as listed by the source): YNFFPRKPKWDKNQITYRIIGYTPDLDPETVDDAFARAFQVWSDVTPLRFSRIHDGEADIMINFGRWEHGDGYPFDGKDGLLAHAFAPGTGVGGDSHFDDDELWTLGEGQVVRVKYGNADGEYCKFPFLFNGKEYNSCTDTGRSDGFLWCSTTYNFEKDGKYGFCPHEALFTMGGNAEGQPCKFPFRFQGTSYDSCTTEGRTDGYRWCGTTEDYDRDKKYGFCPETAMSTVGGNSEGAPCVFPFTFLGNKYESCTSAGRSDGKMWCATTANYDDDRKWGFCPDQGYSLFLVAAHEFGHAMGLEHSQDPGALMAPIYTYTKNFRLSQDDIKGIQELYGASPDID
Chain of recombinant catalytic domain of human MMP19 (chain, as listed by the source): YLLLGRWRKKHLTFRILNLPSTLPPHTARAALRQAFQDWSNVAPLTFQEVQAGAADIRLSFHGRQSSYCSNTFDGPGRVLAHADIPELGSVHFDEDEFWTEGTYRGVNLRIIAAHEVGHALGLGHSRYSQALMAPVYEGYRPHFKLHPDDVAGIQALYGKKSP
Chain of recombinant catalytic domain of human MMP8 (chain, as listed by the source): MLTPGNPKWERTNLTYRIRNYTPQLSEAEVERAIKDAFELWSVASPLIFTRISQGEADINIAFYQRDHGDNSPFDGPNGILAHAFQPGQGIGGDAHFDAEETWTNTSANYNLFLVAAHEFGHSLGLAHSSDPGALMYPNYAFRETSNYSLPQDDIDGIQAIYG

Row | Substance | cleavage of fluorogenic peptide OmniMMP RED by MMP catalytic domain, antibody at 100 nM
1 | recombinant catalytic domain of human MMP2 | had no significant effect on the catalytic activity of the eight other human MMPs tested
2 | recombinant catalytic domain of human MMP3 | had no significant effect on the catalytic activity of the eight other human MMPs tested
3 | recombinant catalytic domain of human MMP8 | had no significant effect on the catalytic activity of the eight other human MMPs tested
4 | recombinant catalytic domain of human MMP13 | had no significant effect on the catalytic activity of the eight other human MMPs tested
5 | recombinant catalytic domain of human MMP19 | had no significant effect on the catalytic activity of the eight other human MMPs tested
